In patent US20130115166A1 (CEPHALON AUSTRALIA, published 2013):
Changes are numbered by the printed parent chain.

B1: 8-22 (antibody, human IgG1, kappa, V domains shown)
VH: QVQLQESGPGLVKPSETLSLTCTVSGFSLISYNVHWIRQPPGKGLEWIGVIWTGGSTDYNPSLKSRVTISRDTSKNQFSLKLSSVTAADTAVYYCARDKYGLFPGYFDYWGQGTLVTVSS
VL: DIVMTQSPDSLAVSLGERATINCKPSQSLLSSGNRKNYLAWYQQKPGQPPKLLIYYASTRQSGVPDRFSGSGSGTDFTLTISSLQAEDVAVYYCLQHFNYPWTFGQGTKLEIKR
notes: Humanized form of E11E7; also called humanized antibody 8-22
B2: 21-4 (antibody, human IgG1, kappa, V domains shown)
VH: B1 VH with Q1E, E6Q, S7W, P9A, V12L, T23A, S25Y, P61S, S62V
VL: EIVLTQSPATLSLSPGERATLSCKPSQSLLSSGNRKNYLAWYQQKPGQAPRLLIYYASTRQSGIPDRFSGSGSGTDFTLTISRLEPEDFAVYYCLQHFNYPWTFGGGTKVEIKR
notes: Humanized form of E11E7; also called humanized antibody 21-4
B3: 20-4 (antibody, human IgG1, kappa, V domains shown)
VH: B1 VH with Q1E, E6Q, S7W, P9A, V12L, T23A, S25Y, P61S, S62V, R71V
VL: B2 VL
notes: Humanized form of E11E7; also called humanized antibody 20-4
B4: 1-4 (antibody, human IgG1, kappa, V domains shown)
VH: EVQLQQWGAGLLKPSETLSLTCAVYGGSFSSYNVHWIRQPPGKGLEWIGVIWTGGSTDYNSVLKSRVTISRDTSKNQFSLKLSSVTAADTAVYYCARDKYGLFPGYFDYWGQGTLVTVSS
VL: B2 VL
notes: Humanized form of E11E7; also called humanized antibody 1-4
B5: 10-22 (antibody, human IgG1, kappa, V domains shown)
VH: B1 VH with F27G, L29I, I30S, R71V
VL: B1 VL
notes: Humanized form of E11E7; also called humanized antibody 10-22
B6: 6-22 (antibody, human IgG1, kappa, V domains shown)
VH: B1 VH with L29I, I30S
VL: B1 VL
notes: Humanized form of E11E7; also called humanized antibody 6-22
B7: E11E7Chimera (antibody, human IgG1, kappa, V domains shown)
VH: QVQLKESGPGLVQPSQTLSLTCTVSGFSLISYNVHWVRQPRGKGLEWMGVIWTGGSTDYNSVLKSRLSISRDTSKSQVFLKMHSLQTEDIGTYYCARDKYGLFPGYFDYWGQGVMVTVSS
VL: DIVMTQSPFSLAVSEGEMVTINCKPSQSLLSSGNRKNYLAWYQQKPGQSPKLLIYYASTRQSGVPDRFIGSGSGTDFTLTISDVQAEDLADYYCLQHFNYPWTFGGGTKLELKR
notes: Rat E11E7 variable regions on human constant regions; also called E11E7 chimeric antibody
B8: E11E7 (antibody, V domains shown)
VH: B7 VH
VL: B7 VL
notes: Rat monoclonal antibody from a hybridoma; also called rat antibody E11E7

Columns and labels:
[1] = molecular target: T1, IL-23 (HEK293E-derived) (human, UniProt P29460 23-328; Q9NPF7 20-189); experiment: SPR (Biacore), antibody supernatant captured on Protein A, IL-23 at 5 ug/ml as analyte
T1 sequence 1: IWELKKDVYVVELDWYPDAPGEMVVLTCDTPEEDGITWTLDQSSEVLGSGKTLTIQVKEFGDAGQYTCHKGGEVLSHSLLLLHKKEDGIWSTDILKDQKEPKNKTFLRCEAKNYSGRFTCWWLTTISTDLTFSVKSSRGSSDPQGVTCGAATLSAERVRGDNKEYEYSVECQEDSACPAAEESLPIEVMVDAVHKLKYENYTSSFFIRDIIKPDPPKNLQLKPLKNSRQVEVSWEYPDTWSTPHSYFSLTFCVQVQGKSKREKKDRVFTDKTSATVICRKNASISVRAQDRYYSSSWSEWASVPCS
T1 sequence 2: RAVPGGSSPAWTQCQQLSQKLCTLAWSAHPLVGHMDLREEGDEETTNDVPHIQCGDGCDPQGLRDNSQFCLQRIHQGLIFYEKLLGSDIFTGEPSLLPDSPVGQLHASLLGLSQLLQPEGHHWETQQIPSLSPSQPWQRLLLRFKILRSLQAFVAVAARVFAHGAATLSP
Method: As a result of the humanization processes 22 humanized antibodies were produced and tested for their ability to bind human IL-23 (Table 4). Briefly, 2 mL transfections of the 22 humanized antibodies were screened for antibody expression level and binding activity via SPR. Protein A was immobilized onto FC1 and FC2 (or alternatively FC3 and FC4) of a CM5 research grade sensor chip using amine coupling, giving approximately 3000 RU. FC1 was used as a blank throughout the experiments. The experiments were run in HBS-P buffer (SPR). Antibody-containing cell culture supernatants were diluted in 10× HBS-P buffer at a ratio of 9:1. The diluted antibody was injected over FC2 at a flow rate of 20 μl/min. IL-23 (HEK293E-derived) was passed over the surface of FC1 and FC2 at a concentrations of 5 μg/ml as a kinetic injection with 5 min dissociation time across both
FC. Regeneration of the surface was performed using 10 mM Glycine, pH 1.5. The sensorgram data from FC2 were subtracted from FC1 and a buffer only control. […] The Sequence IDs of the variable heavy and light chains for each antibody are given in the Table 4 along with kd (off-rates) of selected tested antibodies.

[2] = molecular target: T2, Human IL-23 (human, UniProt P29460 23-328; Q9NPF7 20-189); experiment: SPR (Biacore 3000), antibody captured on Protein A, IL-23 as analyte, 1:1 Langmuir fit
T2 construct: Heterodimer of IL-12p40 covalently linked to IL-23p19, purchased (Ebiosciences or RnD Systems); also called hIL-23; rhIL23
T2 sequence 1: T1 sequence 1
T2 sequence 2: T1 sequence 2
Method: (§1) Using a Biacore 3000, Protein A (Pierce) was immobilized on a CM5 chip using amine coupling chemistry to give 3000 Response Units (RU). Antibody was captured on the surface of the chip in flow cell 2 or 4 with a control surface in flow cell 1 or 3. Human IL-23 was then passed over both flow cells and the response units measured. The surface was then regenerated with 10 mM glycine pH 2.5. For a kinetic run this process was repeated with 5 dilutions of IL-23. Data was double referenced using an injection of running buffer before being fitted using a 1:1 Langmuir equation to determine ka, kd and KD.

[3] = molecular target: T3, IL-12p40 (human, UniProt P29460 23-328); experiment: ELISA, coated antigen IL-12p40, mOD at 450 nm; blank = coating antigen omitted [panel 8-22]
T3 construct: also called IL-12p40 subunit
T3 sequence: T1 sequence 1

[4] = molecular target: T4, IL-23p19 (human, UniProt Q9NPF7 20-189); experiment: ELISA, coated antigen IL-23p19, mOD at 450 nm; blank = coating antigen omitted [panel 8-22]
T4 construct: also called IL-23p19 subunit
T4 sequence: T1 sequence 2

[5] = molecular target: T3, IL-12p40; experiment: ELISA, coated antigen IL-12p40, mOD at 450 nm; blank = coating antigen omitted [panel 20-4]
[6] = molecular target: T4, IL-23p19; experiment: ELISA, coated antigen IL-23p19, mOD at 450 nm; blank = coating antigen omitted [panel 20-4]
[7] = molecular target: T3, IL-12p40; experiment: ELISA, coated antigen IL-12p40, mOD at 450 nm; blank = coating antigen omitted [panel 6-22]
[8] = molecular target: T4, IL-23p19; experiment: ELISA, coated antigen IL-23p19, mOD at 450 nm; blank = coating antigen omitted [panel 6-22]
[9] = molecular target: T2, Human IL-23; experiment: SPR (Biacore 3000), antibody captured on Protein A, IL-23 as analyte, 1:1 Langmuir fit; below the limit of sensitivity
Method: as §1

[10] = molecular target: T2, Human IL-23; experiment: competition ELISA: biotinylated hIL-23 (100 ng/ml) pre-incubated with antibody, binding to coated hIL23R-HIS detected with streptavidin-HRP; blocked partner IL-23R
[11] = molecular target: T5, IL-23Fc (human, UniProt Q9NPF7 20-189); experiment: ELISA, coated human IL-23 (IL-23Fc), biotinylated antibody, streptavidin-HRP, mOD at 450 nm [panel A]
T5 construct: Produced in HEK293E
Method: A NuncMaxisorp 96-well plate was coated with human IL-23 diluted to […] in carbonate coating buffer and overnight incubation at 4° C. The plate was washed (three times in 1×PBS-Tween20 (0.05%)) then blocked for an hour with 1% BSA in PBS at room temperature. Biotinylated antibody was prepared starting from 10 μg/ml and serial half log dilutions were performed then 100 μl was added to the plate and incubated for an hour. The plate was washed and Streptavidin-HRP at 1:2000 dilution was added to all wells and further incubated for an hour. The plate was washed and subsequently developed using TMB (Sigma). The color development reaction was stopped by addition of an equal volume of 1M HCl. Absorbance of the resulting reaction was determined using a plate-based spectrophotometer.

[12] = molecular target: T6, IL-12p40Fc (human); experiment: ELISA, coated human IL-12p40-Fc, biotinylated antibody, streptavidin-HRP, mOD at 450 nm [panel C]
T6 construct: also called human p40-Fc; human IL-12p40-Fc fusion protein

[13] = molecular target: T7, FLAG-tagged IL-12p40 (human, UniProt P29460 23-328); experiment: ELISA, hybridoma supernatant on antigen captured by anti-FLAG M2
T7 sequence: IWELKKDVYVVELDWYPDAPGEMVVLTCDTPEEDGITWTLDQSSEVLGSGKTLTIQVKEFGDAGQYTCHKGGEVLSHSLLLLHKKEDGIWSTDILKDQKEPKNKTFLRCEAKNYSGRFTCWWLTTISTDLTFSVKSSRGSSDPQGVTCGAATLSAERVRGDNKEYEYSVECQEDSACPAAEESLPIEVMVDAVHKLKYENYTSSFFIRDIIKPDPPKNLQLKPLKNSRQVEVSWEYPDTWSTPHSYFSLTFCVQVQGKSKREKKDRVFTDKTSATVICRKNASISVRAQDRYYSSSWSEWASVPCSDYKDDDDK
Method: (§2) Anti-FLAG M2 antibody (Sigma-Aldrich) was coated onto ELISA plates overnight. These plates were then used to capture individually: FLAG-tagged IL-23p19, FLAG-tagged IL-12p40 and FLAG-tagged IL-23. Hybridoma supernatant from the clones was added and hybridomas that were positive for binding to IL-23 but not IL-12p40 or IL-23p19 were expanded.

[14] = molecular target: T8, FLAG-tagged IL-23p19 (human, UniProt Q9NPF7 20-189); experiment: as above
T8 sequence: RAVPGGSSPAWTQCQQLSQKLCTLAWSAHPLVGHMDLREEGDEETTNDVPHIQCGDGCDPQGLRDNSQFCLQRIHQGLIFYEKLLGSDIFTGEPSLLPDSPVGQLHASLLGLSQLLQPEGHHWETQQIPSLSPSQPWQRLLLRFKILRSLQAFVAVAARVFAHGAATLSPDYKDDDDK
Method: as §2

| Binder | koff [1] | Kd [2] | koff [2] | kon [2] | also measured |
| --- | --- | --- | --- | --- | --- |
| B1 | 0.000117 s⁻¹ | 0.421 nM | 0.000197 s⁻¹ | 468000 M⁻¹ s⁻¹ | binding result [3]: no binding (tested: 10 ug/mL); binding result [4]: no binding (tested: 10 ug/mL) |
| B2 | 0.000191 s⁻¹ | 0.388 nM | 0.000202 s⁻¹ | 521000 M⁻¹ s⁻¹ | – |
| B3 | 0.000231 s⁻¹ | 0.47 nM | 0.000202 s⁻¹ | 429000 M⁻¹ s⁻¹ | binding result [5]: no binding (tested: 10 ug/mL); binding result [6]: no binding (tested: 10 ug/mL) |
| B4 | 0.000616 s⁻¹ | 2.11 nM | 0.000733 s⁻¹ | 348000 M⁻¹ s⁻¹ | – |
| B5 | 0.00313 s⁻¹ | – | – | – | – |
| B6 | 0.000241 s⁻¹ | 0.86 nM | 0.0004 s⁻¹ | 465000 M⁻¹ s⁻¹ | binding result [7]: no binding (tested: 10 ug/mL); binding result [8]: no binding (tested: 10 ug/mL) |
| B7 | 5.98e-05 s⁻¹ | – | – | 542000 M⁻¹ s⁻¹ | Kd [9]: < 0.1 nM; koff [9]: < 1e-05 s⁻¹; IC50 (read off the curve) [10]: ~0.04 µg/mL; EC50 (read off the curve) [11]: ~0.09 µg/mL; binding result [12]: no binding (tested: 10 ug/ml) |
| B8 | – | – | – | – | binding result [13]: no binding; binding result [14]: no binding |
